Source: a protein production outcome set (Wang et al. 2014)

Assay: label from the status in PepcDB records

| Sequence | protein production |
| --- | --- |
| MTDKRGNNGKTGLLFPAIFTIFVSIYAAGNYYVGLRFFQSIQSLIEPYSLFYWSGYAFLVISLFAGRLGKRFYPGYVNDLFAVTGNYWVGAVYYSLLIWAGIDVLHFLTSLIFPATRIIKYPSFYFGLAVLLLVFLLLLYGTWNARHPRIVHYDITIKKSVPDLPELHAVMVSDIHLGLVVDKDRLKEMVNRINELDPDVVFLAGDTIDEDVRLFASNKMPEILKKLKSRYGVYAVLGNHEYIGGNNELAVEYLQQAGIHVLVDKCIKVNNHFYVAGRDDRVAGRMNGKKRLELSRLVDGIDHTLPIILLDHQPINLKEGQLNGIDLQLSGHTHAGQFFPNTLISKRVFENSWGYLKKGECQIIVSAGFGTWGPPIRIGSNSEITDIKISFV | failed |
| MTDLEHAVESNRRAWDASADSHLRGGGWQELSLAVQETGFSCLDETLAGVLRNLDLAGKAAVQVGCNNGREVLSLYAFGVARAVGIDQSAAFLAQARQLAERSPHQPRFVEANAYELPAELNGQFDLLLITIGVLNWMPDIARFFASVSGLLKPGGQLAIYETHPFLEMLEPESERPFELRNDYFTDTPHVSREAIVYEGSGSDTGIASYWYVHPLGDILGGLLGAGLRLSHFKEYPHSNREELYDLYEDGPLAIPMCYTLVAVKA | failed |
| MTDLIYNDPDFVQFYDIENQDGRADFDYCVRLARDGGSVLDLGCGTGQLAAEMAQGCNVTGVDPASAMLDVARRRTGGDKVDWVVADARTVRLGRRFDLVLLTGHVFQVFLTDEDQRAVLRTIAEHLGPGGRFIFDTRNPAVEAWLEWTPQRSERMVEHPSLGTVRAWYDADWDAASAVVTYSTFYEIPGGRPILGAESKIAFPKKQDLAGMLDDAGLLVEQWLGDWQGEPYADTSPEIIPIGRLR | failed |
| MTDNSQFHAASALVQAAHTVSVVGHLRPDADAIGSVAATVAALQQLGKDAVGAIGQLDSMPENLYTIPGASNIKFGDSLPESDLIIVVDCGSIERTGAFESIIVNNPDKVLVVDHHATNPGFGAVNLIDVEAESTTTILYDWFDAMSVQITPDIAHGLYAGLLTDTGCFRWGRPVMHDMAKELMEFGLDIRAISSALLDQTSVDDLRLVGQIVSRIELREAGPYTLAVLVADFDTINGRSRAVVEGLIEMVRAVEGADFGAVFKEYERGVYTVSLRSSNLSVASLAVHLGGGGHIPAAGYTARGTEIEALDTLIEATVTLGESLRSSAHVDVLEHHHHHH | not failed |
| MTDPADRPLIERIRACRLCADRFAATHTAHEPRPVVWFRPGARLLIAGQAPGARVHASGRPFTDPSGDRLRDWLGIGEETFYDRSRVAVVPMAFCFPGYNSQGADLPPPPVCGKTWHNQVMGELGEMPLSVLVGGHALKYHLGARSPVTETVAAWRDHAPRVFALPHPSWRNTGWLRKNPWFEAELLPVLRARVKEVLNEPDRSANPD | failed |
| MTDPEKLTALKKAYAETILNTAKEAAARVMITERKARGYQQELASVRDEALRACLRLKQIYDSKVKEAEMISLQKQQKIEELEAQLGEAEDIVGELRTELRESRYLLEKLANGCQTNLSKEEKAPNEAVSLEVREDSSNHERSVVASVIKPHMSDRDLSINRCSYKENKDPCLYTLPSILSRCREAEVVERNTINGDCADVESLTEARKEEAKENDIELSTTPLSPSEKQCIKFSYKRKHNKDGSNSPEGGGSSSQDDDDDDESRSRRHKTGEKDNAYLDSFTSTEPSRDSRRVAQVARQVSESR | failed |
| MTDPLIPVDTYLVDSLPEVWFGAVVFALGMYIVLDGFDFGIGMLYATRTDEHERETFLAAFGPVWDANEVWIVAFGTMLLAAFPRVYSRLLADNYLLALGFVVALVFRGLGPELREQREDERWKRYTDYAFVGGSVFAPLLLGMLAGRWLFAGATLPVVLTGVGLVAVSIVTGAAFLAAKTDSGLASELRSYGVGATVAYLGGVVVLLGTVVATDAGGAASAVLSLPVAAVVALSIVAGLGGSVLARRGRYRAWLASALALPTLLTLLVAVLLYPTVYPPTGLLVREAVVSPLALNLVTVLGFPVLLLVLWYFKFLYGVFSGPIEGEGYGG | failed |
| MTDQAVDTGGSQLPGNEQRPAAAPAPTVSQFLGRTRELKELRADIERAGLDTLSGRKAPRARVLLIAGRPGSGRTALAEELVRQVADRYRDGVLRARLTEPDGTPVPTERTARELLAALEVATPPGAAEDDLTEALREALADRRTLLLLDDVAAAEQVDALLPGTPDCLVVAVSEGPLTGIADVRPCTLGGLDTKSALELLGRLTGAVRITVDPRAAEGLVEECAGQPLALVLAGSWLAARPQAAVADLAKQLRSEGDEGPPTARLFRLAYAGLPATAQRILRLLSLAPAGLVDPHTASALAGCSVSAAHTTLDDFAALGLVRLLESPLPQYEVPGSLLPLLRALAESRERPAELQLARARMLERTVRLLQSCRAITETDSIEAREKLLGMPRTLRFPNPRAAADWLRVRQPALLAAARSAVADGELDTLARRLMSQLVRAMVAHFGTQASAPELYGIHRLVLDVAERRNLPREQAAALLNLADLDTRTGRTTEALARYRAALDAGREANDPYATGRAMESVGGAHQELGDYDRAADWYGRALAQRLARDERVDAARLYGRIATAHTYAGRYGEALRNWRSAVAGHRKNGDVAAQARALSELARVQEYAGRPEESLRTCQEAVEWARRADDVRLQAALQLRLADTLEHLGDPAAAKLHRGAAERMLGEELLESDSGAEQAPNACEIRSASSKD | failed |
| MTDSKYISIKGARVNNLKNIDVNIPRNKLVVITGLSGSGKSSLAFDTLYAEGQRRYVESLSSYARQFLGRMSKPECDFIKGIPPAIAIEQKVNSRNPRSTVGTSTEIYEYLRLLYARVGKTYSPVSGEEVKKHSIEDIVNCMLSYPEGTRYTVLTQIYLHDGRTLEQQLEIDRKQGFNRLEVNGEMVRIDEYAAGKEDVVYLLVDRMTAAKSKDAISRLTDSAETAMYEGDGMCMLRFYQPDGTTRLHTFSTKFEADGMTFEEPNDQMFSFNSPIGACPVCEGFGKVIGIDEHLVVPNRSLSVYDGAIVCWRGEKMGEWREELIHNAEKFNFPIFTPYYELTDEQRRVLWEGNQYFHGINDFFKMLEENQYKIQYRVMLARYRGKTLCPKCHGTRLKPEAGYVRVGGKNISELVDLPITELQKFFDSLTLNEHDQAVARRILTEINSRIRFLIDVGLGYLTLNRLSNSLSGGESQRINLATSLGSSLVGSLYILDEPSIGLHSRDTDRLVHVLRQLQQLGNTVVVVEHDEEIIRAADYIIDIGPNAGRLGGQVVYEGDMKDLKKGSNSYTVKYLLGEETIPVPEHRRPWNNYIEIKGARENNLKGVDARFPLNVMTVVTGVSGSGKSTLVRDIFYRALKRELDECSERPGEFVSIEGDLRNLRNVEFVDQNPIGKSSRSNPVTYIKAYDEIRKLWADQPLAKQMGYTAGHFSFNNEGGRCEECKGDGTITVEMQFMADLVLECESCHGKRFKADTLEVKFQDKNIYDILEMTVNQAIEFFTEHGQKKVVKKLIPLQDVGLGYIKLGQSSSTLSGGENQRVKLAYYLSQEKADPTLFIFDEPTTGLHFHDIRKLLDAFDALIRRGHSIVIIEHNMDVIKCADYVIDLGPEGGDKGGNIVATGTPEEVAACAASYTGQFLQEKLNHL | failed |
| MTDTHTCLTAKDFTSNQEPKWCPGCGDFMVLQQLKNAMAELCLKTEEVVVVSGIGCSSRLPYYINTYGVHGIHGRAMAMASGLKVARPDLSVWVGTGDGDALSIGGNHYIHTVRRNLDINVVLFNNEIYGLTKGQYSPTSKVGLRTVTSPTGVVDYPINTIALTLGAGGTFVARVMDRDGKLMKEIFKRAHNHKGTSIVEIYQNCPIFNDGAFRAFSDKERKDDTTLYLEQGQPLVFGANGSKGIYLDGFKPTVIDLEKSGVSKDDLWIHDENDLIKANILSRFFDDPNSTEEFLPRPFGIFYVEDRFTYEQALSAQIDKAQEKGEGTLEELLAGNSTWTIN | failed |
| MTDTTAEPSRPSGRLWAYLWQLHAETKAYLTLDAPAIASNIDSLSESEQQLAREVFPDGGQSTADSDGGSATDAGSRGGDDSSPFDVGGSYSLRQKIGLVLGPLLFAALLFSPTPDGLPAEGQAVAAVTAWVAVWWMSEAIPIPAASLLPIVLFPLAGALPVEPTATSYGHPLVFLFMGGFFLAMAMQRWGLHRRIALRTIKLVGTEPSRLILGFMLATAILSMWVSNSATVMMMVPIALAVIYQTADLIDDSDVDIDTGVGEFSFGIALMLCIAYGASVGGVATLIGTPPNILFAGQAEALFGQSVSFAEWMLYGVPIAALGLVTVYIYVTRIAMTPQFDSLPAGTETIDRELAELGSMSQQEKLVAVVFVGMAAAWIGASLIEPVLDITPPDDADTIVAIGGALVLFTFPTTGENGDQTFLLDWSSAVEIPWGVILLFGGGLAIAAGFSETGLAVWIGEQLQLLEGVQMAAILLAVVVMTIFLTEVTSNTATTAMLMPILGAVAIGISVHPFGLMIAGATAASFAFMLPVATPPNAIVFGSGYITLPQMARVGVGLNVIGIVLITLLALVWLPIAWGIELATLPAEFADAFDS | failed |
| MTDVFKDMAFQLKTERLDLNMWEESDAVWLRKLIGERGVEMPTIESVRSSLIEMRKKAIENGISLLTIRRRDEGDFIGYCGLIIGRATLEEPEIAYELFKSAHRKGYATEAASAVLEAAIATGRHRLWSTVGAWNTASFRVLEKLGFHRHHSTYGERGEIVWNVRDL | failed |
| MTEAATFHLEMTRQIRAPRERVFDAFTDQAALAAWHCPRGMRVLEASADARVGGRYRLVMGSRDGSQHMVGGEYQKIDRANFLAYTWQWEGGELPEGTRTLIEVTLTDKDGGTLLHMRHSGFPDTATRDAHTSGWQSVFNRLSDYVDAEGSAGTVTVYGDGRSTYVRTVRMALAEKGIAYKLDPLTPRDPELLKHNPFGRIPAFTDGPLEFFETRAILSYIEEAFDGPSLISQAGPTARARCEQWISLINCHAYDAMVRRYVLQYVFPSGENGQPDRKTIDAALPDIAKQLDALEHAYGGRDFLAGNTLTMADLFFAPIVEYLGRFPESAAMLESRPNIRRAHAAMRARPSYAATQPNFG | failed |
| MTEDTADSGTGGRGPTRRHLVRRALALGGALAVAPFPAGPAKAVPPPRHPHRTLRHGSPERAGLLPDHLRGLVTDAESFLGPSPTHPWYAGAVLLAGRGDTVALHQPIGTAVRYSAYDAKTDTGVEFPAERQIPMATDTVFDLASVSKLFTSLLAVQQLERGALELEARVASYLPDFAGAGKQDVTIRQLLTHTSGFRAWLPLYKAPSRAEKLRLIWNEAPLSPPGTKYLYSDLNLISLQLVLEEITGHPLDALLRDEITAPLGLRSTRYNPPAAWKPRIAATEDARPPWSGLDRGLVWGEVHDENAFGFGGVAGHAGVFSCAWDLAVLGRTLLNGGTYGHTRILAPESVELLFTDFNTAFPGDEHGLGFELYQHWYMGAMATPRTAGHTGFTGTSLVLDPTTDSFLIVLGNSVHPVRTWRSGSAPRAAAGNHLARAVQVRPARGRTSWFSGMATAASATLTLPELDTAGTADTAETTGTADSTTADSGGRLRCALWWDTEPRSDTLFLEASADDGASWQPVPFTTACDGEEAREHPTGSVTGWSGRVWHRLHADLPRARRLTLRWRYTTDRLYVGRGAYVDAVRVESGGRVLFDEARPTDAARIEAAGWTPSEN | failed |
| MTEHRPAIELEEIPTLLERIEGYKGRSRLTQLAIKLNLLIFIRSSELRFARWSEIDFKSGLWVIPEQREAIKGIKHSDRGAKMRRKHYVPLCEQALVILGELKDLTYDVNGDDGFILTGCYDAMKPMSENTINKALRKMGYDTKTDLCGHGFRTLACSALIESGIWPEDVVELQMSHMEKNNVRAAYTHKAKHLEQRRLMLQWWADFLDANGSGMVRPFEFAQGATQYLEHHHHHH | failed |
| MTEIKYKVITKDAFALPYTIIKAKNQPTKGVIVYIHGGGLMFGKANDLSPQYIDILTEHYDLIQLSYRLLPEVSLDCIIEDVYASFDAIQSQYSNCPIFTFGRSSGAYLSLLIARDRDIDGVIDFYGYSRINTEPFKTTNSYYAKIAQSINETMIAQLTSPTPVVQDQIAQRFLIYVYARGTGKWINMINIADYTDSKYNIAPDELKTLPPVFIAHCNGDYDVPVEESEHIMNHVPHSTFERVNKNEHDFDRRPNDEAITIYRKVVDFLNAITMV | not failed |
